The text below walks through data of patent US20220048951A1.

The test concerns the target T1, CD20 on CD20 positive lymphoma cells (Daudi, Raji) (human) (UniProt P11836).
T1 sequence: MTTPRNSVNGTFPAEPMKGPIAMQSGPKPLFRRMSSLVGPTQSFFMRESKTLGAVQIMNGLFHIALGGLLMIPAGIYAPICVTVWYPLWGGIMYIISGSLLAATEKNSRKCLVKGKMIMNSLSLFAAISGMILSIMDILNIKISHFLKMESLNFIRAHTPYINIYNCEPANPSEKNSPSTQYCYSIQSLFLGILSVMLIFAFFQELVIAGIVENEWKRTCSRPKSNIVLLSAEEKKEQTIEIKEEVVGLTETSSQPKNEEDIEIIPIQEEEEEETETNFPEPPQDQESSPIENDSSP
The test is described as follows: cell-based or functional assay.

Values joined by “and” are separate entries in the source; they are usually repeats but may differ in a detail not shown here. Equal entries are not always repeated.

B1: anti-CD20 scFv-Phor18 conjugate (C-terminus) (scFv)
scFv: HHHHHHDIQLTQSPAILSASPGEKVTMTCRASSSVSYIHWFQQKPGSSPKPWIYATSNLASGVPVRFSGSGSGTSYSLTISRVEAEDAATYYCQQWTSNPPTFGGGTKLEIGSTSGGGSGGGSGGGGSSVQLQQPGAELVKPGASVKMSCKASGYTFTSYNMHWVKQTPGRGLEWIGAIYPGNGDTSYNQKFKGKATLTADKSSSTAYMQLSSLTSEDSAVYYCARSTYYGGDWYFDVWGQGTTVTVSSGSKFAKFAKKFAKFAKKFAK
As to B1, the IC50 nM, cell viability 24 h, Daudi (CD20 positive) stood at 10 nM; the IC50 nM, cell viability 46 h, Daudi (CD20 positive) is 1.5 nM; the IC50 nM, membrane integrity 2 h, Daudi (CD20 positive) is 110 nM; the IC50 nM, membrane integrity 5 h, Daudi (CD20 positive) came to 112 nM. In addition, the caspase 3/7 activation relative to staurosporine (100%), CD20 positive cells, 5 h was 18.3% and 29.3%.

B2: anti-CD20-Phor18 minibody conjugate Fv-CH3-CH3-Fv-Phor18 (protein)
chain: DIQLTQSPAILSASPGEKVTMTCRASSSVSYIHWFQQKPGSSPKPWIYATSNLASGVPVRFSGSGSGTSYSLTISRVEAEDAATYYCQQWTSNPPTFGGGTKLEIGSTSGGGSGGGSGGGGSSVQLQQPGAELVKPGASVKMSCKASGYTFTSYNMHWVKQTPGRGLEWIGAIYPGNGDTSYNQKFKGKATLTADKSSSTAYMQLSSLTSEDSAVYYCARSTYYGGDWYFDVWGQGTTVTVSSGQPREPQVYTLPPSRDELTKNQVSLTCLVKGFYPSDIAVEWESNGQPENNYKTTPPVLDSDGSFFLYSKLTVDKSRWQQGNVFSCSVMHEALHNHYTQKSLSLSPGKGSTSGGGSGGGSGGGGSSGQPREPQVYTLPPSRDELTKNQVSLTCLVKGFYPSDIAVEWESNGQPENNYKTTPPVLDSDGSFFLYSKLTVDKSRWQQGNVFSCSVMHEALHNHYTQKSLSLSPGKVQLQQPGAELVKPGASVKMSCKASGYTFTSYNMHWVKQTPGRGLEWIGAIYPGNGDTSYNQKFKGKATLTADKSSSTAYMQLSSLTSEDSAVYYCARSTYYGGDWYFDVWGQGTTVTVSSGSTSGGGSGGGSGGGGSSDIQLTQSPAILSASPGEKVTMTCRASSSVSYIHWFQQKPGSSPKPWIYATSNLASGVPVFSGSGSGTSYSLTISRVEAEDAATYYCQQWTSNPPTFGGGTKLEIGSKFAKFAKKFAKFAKKFAK
In turn, B2 registered an IC50 nM, cell viability 24 h, Daudi (CD20 positive) of 10.5 nM and an IC50 nM, cell viability 46 h, Daudi (CD20 positive) of 3.6 nM.
